Measured values: patent publication US20120294945A1
Ends that are not written are not given here. HA = hyaluronic acid (HA-TBA), bound to the peptide's terminal amine

Target: Flt1-Fc (R&D systems, Minneapolis, Minn.) (UniProt P17948)
Assay: competition ELISA, VEGF165-coated plate, 500 ng/mL Flt1-Fc, conjugate at rising peptide concentration

Sequence of Flt1-Fc (R&D systems, Minneapolis, Minn.) (P17948 27-756 limits assumed): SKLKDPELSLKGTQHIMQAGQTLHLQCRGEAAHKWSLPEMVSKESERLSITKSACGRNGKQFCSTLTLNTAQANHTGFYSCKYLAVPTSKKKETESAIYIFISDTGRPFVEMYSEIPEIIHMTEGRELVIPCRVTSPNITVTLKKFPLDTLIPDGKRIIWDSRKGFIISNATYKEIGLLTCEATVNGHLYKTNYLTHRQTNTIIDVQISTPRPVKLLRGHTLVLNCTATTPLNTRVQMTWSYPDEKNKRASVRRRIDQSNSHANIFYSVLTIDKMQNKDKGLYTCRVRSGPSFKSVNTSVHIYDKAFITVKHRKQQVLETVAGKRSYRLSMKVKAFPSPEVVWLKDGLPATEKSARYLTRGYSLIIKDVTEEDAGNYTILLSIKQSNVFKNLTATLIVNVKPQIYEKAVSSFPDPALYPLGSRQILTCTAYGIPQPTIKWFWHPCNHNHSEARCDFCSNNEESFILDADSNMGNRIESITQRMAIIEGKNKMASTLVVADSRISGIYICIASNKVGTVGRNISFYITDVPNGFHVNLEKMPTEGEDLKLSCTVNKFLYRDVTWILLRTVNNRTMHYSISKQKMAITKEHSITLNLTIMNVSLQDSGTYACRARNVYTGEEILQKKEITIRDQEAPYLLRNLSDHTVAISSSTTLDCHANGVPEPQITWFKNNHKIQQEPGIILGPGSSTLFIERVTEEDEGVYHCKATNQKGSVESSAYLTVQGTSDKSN

B1: hyaluronic acid-peptide conjugate with a lower peptide content of Preparation Example 3 (HA-GGNQWFI) (peptide)
peptide: {HA}-GGNQWFI
modifications: also: 20 peptides conjugated per HA-TBA molecule
- inhibition of the bonding between VEGF165 and Flt1-Fc (luminescence, positive control = 100%): 32%
